Experimental data taken from patent US20180155451A1 (published 2018).

Tests used:
[1] = biological target: T1, FcγRIa extracellular domain with C-terminal His tag (human, UniProt P12314 16-292); experiment: SPR (Biacore); He/Con_1a divided by He/Con_2b (FcγRIIb)
T1 construct: extracellular domain; Soluble receptor expressed in FreeStyle293 cells; analyte in Biacore; also called FcgRI; FcgRIa; not shown: His tag at the C terminus
Protocol: (§1) The heterodimerized antibodies He Abs in which one of the H chains was introduced with an alteration were assayed for their binding activities to each activating FcγR and inhibitory FcγR according to the method described in Example 4. […] The activating FcγRs in FIGS. 26, 27, 28, and 29 are FcγRIa, FcγRIIa (R), FcγRIIa (H), and FcγRIIIa, respectively.
(§2) Analysis of interaction between objective antibody and the FcγR was carried out using Biacore T100 (GE Healthcare). HBS-EP+ (GE Healthcare) was used as the running buffer, and the measurement temperature was set to 25° C. Chips produced by immobilizing the antigen peptide by the amine coupling method to a Series S Sencor Chip CM5 (GE Healthcare), or alternatively, chips produced by allowing preliminarily biotinylated antigen peptides to interact with and immobilize onto a Series S Sensor Chip SA (certified) (GE Healthcare) were used. Antibodies of interest were captured onto an antigen peptide-immobilized chip, and allowed to interact to each FcγR diluted with running buffer. To regenerate and repeatedly use the chip, the antibodies captured on the chip were washed off by reacting 10 mM glycine-HCl, pH 1.5.

[2] = biological target: T1, FcγRIa extracellular domain with …; experiment: SPR (Biacore), antibody captured on antigen peptide chip, FcγR as analyte; binding relative to GpH7-A5/GpH7-B3/GpL16-k0 = 100
Protocol: as §1, §2

[3] = biological target: T2, FcγRIIb extracellular domain with C-terminal His tag (human, UniProt P31994 43-217); experiment: as above
T2 construct: extracellular domain; Soluble receptor expressed in FreeStyle293 cells; analyte in Biacore; also called FcgRIIb; 2b; not shown: His tag at the C terminus
T2 sequence (looked up): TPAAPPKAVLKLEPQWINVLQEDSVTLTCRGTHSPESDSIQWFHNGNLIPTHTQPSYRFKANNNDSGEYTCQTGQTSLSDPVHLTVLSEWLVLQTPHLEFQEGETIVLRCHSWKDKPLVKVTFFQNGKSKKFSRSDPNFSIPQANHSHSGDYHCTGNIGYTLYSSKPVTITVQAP
Protocol: as §1, §2

T1 sequence (P12314 16-292): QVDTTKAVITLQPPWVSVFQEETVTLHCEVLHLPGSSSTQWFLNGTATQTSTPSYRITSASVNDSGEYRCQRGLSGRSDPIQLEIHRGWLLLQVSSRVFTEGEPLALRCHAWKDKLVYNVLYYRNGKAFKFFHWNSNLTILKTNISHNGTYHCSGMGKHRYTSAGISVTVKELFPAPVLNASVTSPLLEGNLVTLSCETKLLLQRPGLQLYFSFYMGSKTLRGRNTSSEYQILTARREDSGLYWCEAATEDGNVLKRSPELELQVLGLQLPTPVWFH

| Binder | He_1a/2b (Ia/IIb) [1] | He/Con_1a (Ia binding) [2] | He/Con_2b (IIb binding) [3] |
| --- | --- | --- | --- |
| GpH7-A5/GpH7-B3 variant E333_12R/GpL16-k0 (antibody, human IgG1, kappa, He Ab: heterodimerized anti-glypican-3 IgG1, substitution in one H chain only; also called He Ab E333R) heavy 1: not shown heavy 2: not shown light: DIVMTQSPLSLPVTPGEPASISCQASESLVHSNRNTYLHWYLQKPGQSPQLLIYKVSNRFSGVPDRFSGSGSGTDFTLKISRVEAEDVGVYYCSQNTHVPPTFGQGTKVEIERTVAAPSVFIFPPSDEQLKSGTASVVCLLNNFYPREAKVQWKVDNALQSGNSQESVTEQDSKDSTYSLSSTLTLSKADYEKHKVYACEVTHQGLSSPVTKSFNRGEC | 1.27 | 102 % of control (control = 100) | 80.4 % of control (control = 100) |
| GpH7-A5/GpH7-B3 variant I332_12R/GpL16-k0 (antibody, human IgG1, kappa, He Ab: heterodimerized anti-glypican-3 IgG1, substitution in one H chain only; also called He Ab I332R) heavy 1: not shown heavy 2: not shown light: DIVMTQSPLSLPVTPGEPASISCQASESLVHSNRNTYLHWYLQKPGQSPQLLIYKVSNRFSGVPDRFSGSGSGTDFTLKISRVEAEDVGVYYCSQNTHVPPTFGQGTKVEIERTVAAPSVFIFPPSDEQLKSGTASVVCLLNNFYPREAKVQWKVDNALQSGNSQESVTEQDSKDSTYSLSSTLTLSKADYEKHKVYACEVTHQGLSSPVTKSFNRGEC | 2.05 | 100 % of control (control = 100) | 48.9 % of control (control = 100) |
| GpH7-A5/GpH7-B3 variant L328_05P/GpL16-k0 (antibody, human IgG1, kappa, He Ab: heterodimerized anti-glypican-3 IgG1, substitution in one H chain only; also called He Ab L328P) heavy 1: not shown heavy 2: not shown light: DIVMTQSPLSLPVTPGEPASISCQASESLVHSNRNTYLHWYLQKPGQSPQLLIYKVSNRFSGVPDRFSGSGSGTDFTLKISRVEAEDVGVYYCSQNTHVPPTFGQGTKVEIERTVAAPSVFIFPPSDEQLKSGTASVVCLLNNFYPREAKVQWKVDNALQSGNSQESVTEQDSKDSTYSLSSTLTLSKADYEKHKVYACEVTHQGLSSPVTKSFNRGEC | 1.42 | 92.2 % of control (control = 100) | 65.1 % of control (control = 100) |
| GpH7-A5/GpH7-B3 variant E333_18N/GpL16-k0 (antibody, human IgG1, kappa, He Ab: heterodimerized anti-glypican-3 IgG1, substitution in one H chain only; also called He Ab E333N) heavy 1: not shown heavy 2: not shown light: DIVMTQSPLSLPVTPGEPASISCQASESLVHSNRNTYLHWYLQKPGQSPQLLIYKVSNRFSGVPDRFSGSGSGTDFTLKISRVEAEDVGVYYCSQNTHVPPTFGQGTKVEIERTVAAPSVFIFPPSDEQLKSGTASVVCLLNNFYPREAKVQWKVDNALQSGNSQESVTEQDSKDSTYSLSSTLTLSKADYEKHKVYACEVTHQGLSSPVTKSFNRGEC | 1.27 | 96.6 % of control (control = 100) | 76.1 % of control (control = 100) |
| GpH7-A5/GpH7-B3 variant I336_02A/GpL16-k0 (antibody, human IgG1, kappa, He Ab: heterodimerized anti-glypican-3 IgG1, substitution in one H chain only; also called He Ab I336A) heavy 1: not shown heavy 2: not shown light: DIVMTQSPLSLPVTPGEPASISCQASESLVHSNRNTYLHWYLQKPGQSPQLLIYKVSNRFSGVPDRFSGSGSGTDFTLKISRVEAEDVGVYYCSQNTHVPPTFGQGTKVEIERTVAAPSVFIFPPSDEQLKSGTASVVCLLNNFYPREAKVQWKVDNALQSGNSQESVTEQDSKDSTYSLSSTLTLSKADYEKHKVYACEVTHQGLSSPVTKSFNRGEC | 1.25 | 106 % of control (control = 100) | 84.9 % of control (control = 100) |
| GpH7-A5/GpH7-B3 variant I336_01G/GpL16-k0 (antibody, human IgG1, kappa, He Ab: heterodimerized anti-glypican-3 IgG1, substitution in one H chain only; also called He Ab I336G) heavy 1: not shown heavy 2: not shown light: DIVMTQSPLSLPVTPGEPASISCQASESLVHSNRNTYLHWYLQKPGQSPQLLIYKVSNRFSGVPDRFSGSGSGTDFTLKISRVEAEDVGVYYCSQNTHVPPTFGQGTKVEIERTVAAPSVFIFPPSDEQLKSGTASVVCLLNNFYPREAKVQWKVDNALQSGNSQESVTEQDSKDSTYSLSSTLTLSKADYEKHKVYACEVTHQGLSSPVTKSFNRGEC | 1.21 | 109 % of control (control = 100) | 90.1 % of control (control = 100) |
| GpH7-A5/GpH7-B3 variant P329_03V/GpL16-k0 (antibody, human IgG1, kappa, He Ab: heterodimerized anti-glypican-3 IgG1, substitution in one H chain only; also called He Ab P329V) heavy 1: not shown heavy 2: not shown light: DIVMTQSPLSLPVTPGEPASISCQASESLVHSNRNTYLHWYLQKPGQSPQLLIYKVSNRFSGVPDRFSGSGSGTDFTLKISRVEAEDVGVYYCSQNTHVPPTFGQGTKVEIERTVAAPSVFIFPPSDEQLKSGTASVVCLLNNFYPREAKVQWKVDNALQSGNSQESVTEQDSKDSTYSLSSTLTLSKADYEKHKVYACEVTHQGLSSPVTKSFNRGEC | 2.53 | 97.4 % of control (control = 100) | 38.5 % of control (control = 100) |
| GpH7-A5/GpH7-B3 variant I336_15Y/GpL16-k0 (antibody, human IgG1, kappa, He Ab: heterodimerized anti-glypican-3 IgG1, substitution in one H chain only; also called He Ab I336Y) heavy 1: not shown heavy 2: not shown light: DIVMTQSPLSLPVTPGEPASISCQASESLVHSNRNTYLHWYLQKPGQSPQLLIYKVSNRFSGVPDRFSGSGSGTDFTLKISRVEAEDVGVYYCSQNTHVPPTFGQGTKVEIERTVAAPSVFIFPPSDEQLKSGTASVVCLLNNFYPREAKVQWKVDNALQSGNSQESVTEQDSKDSTYSLSSTLTLSKADYEKHKVYACEVTHQGLSSPVTKSFNRGEC | 1.51 | 103 % of control (control = 100) | 68.2 % of control (control = 100) |
